Source: patent US20100015685A1, “LACTOBACILLUS N-DEOXYRIBOSYL TRANSFERASES, CORRESPONDING NUCLEOTIDE SEQUENCES AND THEIR USES” (INSTITUT PASTEUR, priority 2001, published 2010)

What was measured:
PAK 26 strain = assay: Nutritional screening in PAK 26 strain to distinguish deoxyribosyltransferase I and II activities; type: cell-based, Escherichia coli; settings: plasmid of selected transforming clones; deoxyguanosine and thymine as sources of guanine and thymidine
Source text: Preferably this strain is incapable of growing in the presence of deoxyguanosine as a source of guanine. In preferred manner, it is the PAK 6 strain. • (ii) transfer of exogenous DNA, preferably in the form of an expression vector, into the bacterium, the exogenous DNA being capable of comprising a sequence coding for a deoxyribosyltransferase. • (iii) culture of the bacteria obtained in Stage (ii) on a medium containing deoxyguanosine. • (iv) isolation of the exogenous DNA transferred into the bacteria of Stage (iii) which have developed on the medium containing deoxyguanosine. The present invention also provides a nutritional screening for distinguishing the deoxyribosyltransferase I and II activities, preferably in particular for distinguishing between the ntd and ptd polypeptides according to the invention. This second screening comprises the stages of: • (i) obtaining a bacterial strain such as for example Escherichia coli, auxotrophic for guanine and thymidine. Preferably, this strain is incapable of growing in the presence of guanine and thymidine. In preferred manner, it is the PAK 26 strain (Δ guaBguaA::Δdeo-11 ΔthyA::erm Δ (udp-metE) zif9::Tn10) is auxotrophic for methionine, guanine and thymidine. • (ii) transfer of the exogenous DNA, preferably in the form of an expression vector, into the bacterium, the exogenous DNA being capable of comprising a sequence coding for a deoxyribosyltransferase I or II. • (iii) culture of the bacteria obtained in Stage (ii) on a medium containing deoxyguanosine, then determination of whether the bacteria are growing or not. If the bacteria are growing, then the exogenous DNA codes for a deoxyribosyltransferase II activity which is expressed in said bacterium. If the bacteria are not growing, then the exogenous DNA is capable of coding for a deoxyribosyltransferase I activity. Other characteristics and advantages of the invention are clear from the rest of the description, with examples represented hereafter. […]

PAK 6 strain = assay: Growth of the PAK 6 strain on a glucose mineral medium (in vivo nutritional screening); type: cell-based, Escherichia coli; design: key: (+) growth; (−) absence of growth; settings: for Growth of the PAK 6 strain, A: glucose mineral medium with adenine; for Growth of the PAK 6 strain, dG + A: glucose mineral medium with deoxyguanosine + adenine; for Growth of the PAK 6 strain, G: glucose mineral medium with guanine
Source text: A functional screening allowing the production of guanine to be selected was established on E. coli by deleting the two genes of the guaBA operon which controls the conversion of IMP into XMP then into GMP and also those of the deoCABD operon which controls the degradation of deoxynucleosides to give the PAK 6 strain. The E. coli genome specifies an activity allowing the base G to be converted into GMP (guanine phosphoribosyltransferase encoded by the gpt gene), and also an activity allowing the base G to be released from the dR-G deoxynucleoside (purine nucleoside phosphorylase encoded by the deoD gene in the deo operon). The PAK 6 strain thus has a requirement for guanine (G) which cannot be satisfied by the addition of deoxyguanosine (dR-G). The use of deoxyguanosine (dR-G) can however be selected if an N-deoxyribosyltransferase activity is expressed in the PAK6 strain in order to carry out the exchange: dR-G+A<->dR-A+G.
This exchange between two purine bases can be catalyzed by the two enzyme classes.
DNA fragments of a size comprised between 1 and 2 kb obtained by partial digestion (AluI) of L. helveticus CNRZ 32 were ligated in a ColE1 plasmid (of pUC type digested by SmaI and desphosphorylated) and the mixture is used to transform the PAK6 strain. The transforming clones were selected in a glucose mineral medium to which deoxyguanosine (dR-G) and adenine (A) have been added to the final concentration of 0.3 mM.

[1] = tested on: N-deoxyribosyltransferase activity; assay: Enzymatic activity of corresponding raw extracts (in vitro); type: biochemical; design: key: (+) growth; (−) absence of growth; settings: for Enzymatic activity of raw extracts, dC + A: substrates deoxycytidine + adenine; for Enzymatic activity of raw extracts, dC + T: substrates deoxycytidine + thymine; for Enzymatic activity of raw extracts, dG + A: substrates deoxyguanosine + adenine

B1: ntd Lh: N-deoxyribosyltransferase of SEQ ID No. 2 (or SEQ ID No. 14) coded by the ntd Lh gene of Lactobacillus helveticus (protein)
chain: MNKKKTLYFGAGWFNEKQNKAYKEAMAALKENPTVDLENSYVPLENQYKGIRIDEHPEYLHNIEWASATYHNDLVGIKTSDVMLGVYLPEEEDVGLGMELGYALSQGKYILLVIPDEDYGKPINLMSWGVCDNAIKISELKDFDFNKPRYNFYDGAVY
modifications: Lactobacillus helveticus NTD
Class of N-deoxyribosyltransferase activity (I or II) (PAK 26 strain): Class II N-deoxyribosyltransferase activity
Growth of the PAK 6 strain, A (PAK 6 strain): −
Growth of the PAK 6 strain, dG + A (PAK 6 strain): +
Growth of the PAK 6 strain, G (PAK 6 strain): +
Enzymatic activity of raw extracts, dC + A [1]: +
Enzymatic activity of raw extracts, dC + T [1]: +
Enzymatic activity of raw extracts, dG + A [1]: +

B2: ptd Lh: N-deoxyribosyltransferase of SEQ ID No. 4 coded by the ptd Lh gene of Lactobacillus helveticus (purine deoxyribosyltransferase) (protein)
chain: MKAVVPTGKIYLGSPFYSDAQRERAAKAKELLAKNLSIAHVFFPFDDGFTDPDEKNPEIGGIRSMVWRDATYQNDLTGISNATCGVFLYDMDQLDDGSAFEIGFMRAMHKPVILVPFTEHPEKEKKMNLMIAQGVTTIIDGNTEFEKLADYNFNECPFNPVRGYGIY
modifications: Lactobacillus helveticus PTD
Class of N-deoxyribosyltransferase activity (I or II) (PAK 26 strain): Class I N-deoxyribosyltransferase activity
Growth of the PAK 6 strain, A (PAK 6 strain): −
Growth of the PAK 6 strain, dG + A (PAK 6 strain): +
Growth of the PAK 6 strain, G (PAK 6 strain): +
Enzymatic activity of raw extracts, dC + A [1]: −
Enzymatic activity of raw extracts, dC + T [1]: −
Enzymatic activity of raw extracts, dG + A [1]: +

B3: ntd: N-deoxyribosyltransferase of SEQ ID No. 6 coded by the ntd Lf gene of Lactobacillus fermentum (protein)
chain: LKNTDPVANTKIYLATSFFNEEQRARIPQALAQLEANPTVGVVHQPFDFQYKDARVDSDPAGVFGSLEWQIATYNNDLNAVGTSDVCVALYDMDQIDEGICMEIGMFVALHKPIVLLPFTKKDKSAYEANLMLARGVTTWLEPNDFSPLKDFNFNHPMAQPFPPFKVF
modifications: Lactobacillus fermentum NTD
Class of N-deoxyribosyltransferase activity (I or II) (PAK 26 strain): Class II N-deoxyribosyltransferase activity
Growth of the PAK 6 strain, A (PAK 6 strain): −
Growth of the PAK 6 strain, dG + A (PAK 6 strain): +
Growth of the PAK 6 strain, G (PAK 6 strain): +
Enzymatic activity of raw extracts, dC + A [1]: +
Enzymatic activity of raw extracts, dC + T [1]: +
Enzymatic activity of raw extracts, dG + A [1]: +
